This passage reports Kd results from PMC5811608, “Structure of prothrombin in the closed form reveals new details on the mechanism of activation” (Scientific Reports, 2018).

A value given as a limit tells only on which side of the number the result lay.

A word on the Kd: it is the constant that tells how readily two partners part at equilibrium.

For the assay, the target named is Human recombinant prethrombin-2 (human). Put plainly: SPR; Biacore S200; prethrombin-2 amine-coupled (NHS/EDC) to a CM5 chip, 1633 RU; fragment-1 injected, two-fold dilutions 7.4-119 uM, single-cycle kinetics, 35 ul/min; 20 mM HEPES, 150 mM NaCl, 5 mM CaCl2, pH 7.4; referenced to an unmodified CM5 surface. The settings on record: both partners purified.

B1: fragment-1 of prothrombin (domain or fragment)
chain: ANTFLEEVRKGNLERECVEETCSYEEAFEALESSTATDVFWAKYTACETARTPRDKLAACLEGNCAEGLGTNYRGHVNITRSGIECQLWRSRYPHKPEINSTTHPGADLQENFCRNPDSSTTGPWCYTTDPTVRRQECSIPVCGQDQVTVAMTPR
modifications: purchased fragment-1 (presumably plasma-derived): Gla domain gamma-carboxyglutamates, N-glycans and disulfides expected; 5 mM CaCl2 in assay. Mature numbering + 43 = precursor; ends at cleavage site …
As for B1, the dissociation constant (Kd) is above 200 µM.
